Laboratory results: the supplement of paper PMC12042874
± gives the uncertainty stated by the source.

Assay: amyloid nucleation score (Sup35N fusion, yeast selection) (log enrichment); library NNK3; higher = more nucleation; inactive = no reads after selection
Outline: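 Peptides of 20 random codons fused to Sup35N were expressed in psi-negative yeast, induced 24 hours with 100 μM copper sulfate, then grown 7 days at 30°C on medium lacking adenine and uracil. Input and output plasmid inserts were Illumina-sequenced. Nucleation score is the DiMSum log enrichment of output over input reads, centred on the mode score of non-aggregating sequences, excluding sequences with under 100 input reads. Random libraries had three technical output replicates.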

Substance | amyloid nucleation score
TLMISPENIVRR | inactive
FLAVLNLPGCGMDMRNLINL | inactive
QSCCKQQILYHRGQTRHQ | inactive
CLLVRTIMRVLYFWMES | inactive
CHSRTDKNSFC | inactive
KYTNTACLSRASIGNMIGQF | inactive
SCGGCLFPDHKCCTSYARWV | inactive
LAMPTLLQASVTNLVGDSIV | -0.265 ± 0.39
RISYKVRHTSNLVKTWCYTW | inactive
VCVNSLPYLICDIRVIIDRG | 1.11 ± 0.13
LARHSCSSNVYGNLQRTFFG | inactive
TGYAFFHEAS | inactive
PVLNAAVHDNFFTADHIRKK | inactive
SQSGELFSDMMVLLG | inactive
VTCSYQMVLWAAFVVKCPAL | 0.817 ± 0.21
NLMRSILWVEYVQDCNCCSG | 2.54 ± 0.07
FSTVKQLYCFMTPIYASFNS | -0.531 ± 1
LFSEFQ | 0.574 ± 0.32
LSILTFGSCTNKSH | inactive
FFEWRTGLFVLWLSEVTSLM | inactive
VYNTGFLGPVSFSAGKFLML | 0.943 ± 0.13
IDRLLLNTKYIVQGLPNWTK | inactive
KWAWVGISCPRYRSRLGYFS | inactive
NCGRNRNPPTESCPEVGPRL | inactive
LNFGEFILMAGDLLTLMCVF | 1.42 ± 0.12
YDTNLRLFRSRRLSPGWCFR | inactive
CFETCLSAVGHSIQAQKLSG | 0.193 ± 0.29

Substance | amyloid nucleation score
HPCPK | inactive
IALKGRAFAHEGCLRGRRGG | inactive
GSISMFNKG | inactive
MTAVVDRTSNGYSYVTGHLL | inactive
VFYSKKDRMGGQFS | inactive
WKGPNRQSMLHGLPLYIYQI | -0.305 ± 0.66
TNMVMA | inactive
KVWCKMLISSFIWMYVSE | inactive
VINRSLCPERFGKGAL | inactive
YLPAHIYMK | inactive
ASYYVKEFVQREHSIYAN | inactive
SLMDGFLPNSGEFRIKYAVL | inactive
YIRATCDSLCVISVWVLRFL | inactive
RFLLVVMF | inactive
IQLAYIPEMALPTSWARVSG | inactive
LRNQITQIDDT | inactive
IERSNFLQCPVRGLRNTARV | 0.526 ± 0.26
DLSMGNCEVVGLESSTTICK | inactive
SVSLYLNLVSLVYCLVCP | 1.26 ± 0.14
DHLQVHYCGRHVLGAKKFAR | inactive
CQLRGEFDSVAVNNVCIAML | inactive
LNQLRSDITGLMSMTWDDLC | inactive
NSSNII | 2.56 ± 0.067
SYCTYCRKAVGCHVHDEVGG | inactive
IVFWRSFHKNA | inactive
VRHGCG | inactive
RNFVEANAYSFRLVTVTLSM | inactive

Substance | amyloid nucleation score
WIYRLWQGDIVPRVMTAHTA | -0.735 ± 1.8
GGMGSLCSTREGMDWCPRGY | inactive
KFRKTRSKR | inactive
FLRGLVK | inactive
FLCLSKGTGVAISKMSQN | inactive
SNYVKKQIALS | inactive
GFFYRDDARNFVLVTNSWRL | inactive
IVNRIVVSSRRFSLVHWGWA | 1.73 ± 0.11
CKFCFSAIFSLLYNRIGAPQ | inactive
GAFMLEGAIRRFS | inactive
TSSLDEGTFV | 0.644 ± 0.16
SPRLYETRMLPLTMGCGGDD | inactive
VWYAYRLYQTWKITNVLIPW | inactive
FHTSKLHRFPHLK | inactive
VIKALRMVCMGHWSYSVTLS | inactive
CVEAEDNFVLLKEGHAAWDV | inactive
NTTHNVNV | inactive
TQHTTYTPLPHTELRLPYPQ | inactive
LPLSFSL | inactive
ADVLLMRDRAFRRGSWRMAR | inactive
RFSYVVTRSG | inactive
VSRCRVHKFTGYC | -0.441 ± 0.8
VFTVF | inactive
EISSVAAYGSN | inactive
ESLATNQVDMFSLSVRIFGP | inactive
KVFNTL | inactive
